From the supplement of paper PMC9112550, “Optimization of the antimicrobial peptide Bac7 by deep mutational scanning” (BMC Biology, 2022)

Tested on: Escherichia coli TOP10
Test: shrunken log2 fold change of peptide-encoding DNA abundance (4.5 h post-induction vs induction); higher = less antimicrobial activity (less host growth inhibition)
Details: time post-induction: 4.5 h; library: site-saturation at positions 5, 18, 19, 20
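Note: peptides expressed intracellularly from a pBAD plasmid library in pooled LB shake-flask culture, induced with 0.3% L-arabinose, DNA abundance read by NGS, three biological replicates, DESeq2 with apeglm shrinkage.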

Sequence: RRIRFRPPRLPRPRPRPMDAPRP
- shrunken log2 fold change: 0.111

Sequence: RRIRRRPPRLPRPRPRPQQMPRP
- shrunken log2 fold change: 0.12

Sequence: RRIRWRPPRLPRPRPRPNRDPRP
- shrunken log2 fold change: -0.00925

Sequence: RRIRVRPPRLPRPRPRPLKQPRP
- shrunken log2 fold change: -0.0521

Sequence: RRIRQRPPRLPRPRPRPTQCPRP
- shrunken log2 fold change: -0.343

Sequence: RRIRERPPRLPRPRPRPLHPPRP
- shrunken log2 fold change: 0.309

Sequence: RRIRIRPPRLPRPRPRPKELPRP
- shrunken log2 fold change: -0.563

Sequence: RRIRARPPRLPRPRPRPSFVPRP
- shrunken log2 fold change: 0.0934

Sequence: RRIRCRPPRLPRPRPRPGVWPRP
- shrunken log2 fold change: 0.537

Sequence: RRIRGRPPRLPRPRPRPRWSPRP
- shrunken log2 fold change: 0.754

Sequence: RRIRTRPPRLPRPRPRPNHTPRP
- shrunken log2 fold change: -0.312

Sequence: RRIRYRPPRLPRPRPRPVHRPRP
- shrunken log2 fold change: -0.462

Sequence: RRIRHRPPRLPRPRPRPRIWPRP
- shrunken log2 fold change: 0.242

Sequence: RRIRIRPPRLPRPRPRPTICPRP
- shrunken log2 fold change: -0.191

Sequence: RRIRRRPPRLPRPRPRPLMTPRP
- shrunken log2 fold change: 0.351

Sequence: RRIRHRPPRLPRPRPRPLCMPRP
- shrunken log2 fold change: -0.708

Sequence: RRIRMRPPRLPRPRPRPQGLPRP
- shrunken log2 fold change: 0.0389

Sequence: RRIRVRPPRLPRPRPRPMYSPRP
- shrunken log2 fold change: -0.242

Sequence: RRIRTRPPRLPRPRPRPTWKPRP
- shrunken log2 fold change: 0.0204

Sequence: RRIRSRPPRLPRPRPRPHVGPRP
- shrunken log2 fold change: -0.0134

Sequence: RRIRGRPPRLPRPRPRPYRMPRP
- shrunken log2 fold change: -0.245

Sequence: RRIRKRPPRLPRPRPRPHACPRP
- shrunken log2 fold change: 0.0691

Sequence: RRIRRRPPRLPRPRPRPTQCPRP
- shrunken log2 fold change: 0.252

Sequence: RRIRGRPPRLPRPRPRPDCTPRP
- shrunken log2 fold change: 0.615

Sequence: RRIRDRPPRLPRPRPRPNFKPRP
- shrunken log2 fold change: -0.0287

Sequence: RRIRVRPPRLPRPRPRPPKEPRP
- shrunken log2 fold change: 0.0261

Sequence: RRIRDRPPRLPRPRPRPYFYPRP
- shrunken log2 fold change: -0.793

Sequence: RRIRTRPPRLPRPRPRPSILPRP
- shrunken log2 fold change: -0.781

Sequence: RRIRGRPPRLPRPRPRPNWRPRP
- shrunken log2 fold change: 0.595

Sequence: RRIRRRPPRLPRPRPRPVHAPRP
- shrunken log2 fold change: 0.67

Sequence: RRIRRRPPRLPRPRPRPKSPPRP
- shrunken log2 fold change: 0.189

Sequence: RRIRDRPPRLPRPRPRPTGFPRP
- shrunken log2 fold change: 0.0286

Sequence: RRIRIRPPRLPRPRPRPHYPPRP
- shrunken log2 fold change: -0.32

Sequence: RRIRFRPPRLPRPRPRPNHPPRP
- shrunken log2 fold change: -0.84

Sequence: RRIRTRPPRLPRPRPRPCSQPRP
- shrunken log2 fold change: -0.018

Sequence: RRIRHRPPRLPRPRPRPMVAPRP
- shrunken log2 fold change: 0.195

Sequence: RRIRLRPPRLPRPRPRPWAQPRP
- shrunken log2 fold change: 0.249

Sequence: RRIRTRPPRLPRPRPRPVDQPRP
- shrunken log2 fold change: -0.123

Sequence: RRIRSRPPRLPRPRPRPENMPRP
- shrunken log2 fold change: -0.459

Sequence: RRIRERPPRLPRPRPRPCLLPRP
- shrunken log2 fold change: -0.0977

Sequence: RRIRDRPPRLPRPRPRPHWCPRP
- shrunken log2 fold change: -0.116

Sequence: RRIRFRPPRLPRPRPRPDVWPRP
- shrunken log2 fold change: 0.128

Sequence: RRIRQRPPRLPRPRPRPRSVPRP
- shrunken log2 fold change: 0.235

Sequence: RRIRIRPPRLPRPRPRPWPIPRP
- shrunken log2 fold change: -0.0934

Sequence: RRIRHRPPRLPRPRPRPHRAPRP
- shrunken log2 fold change: 0.0912

Sequence: RRIRDRPPRLPRPRPRPPPTPRP
- shrunken log2 fold change: 0.973

Sequence: RRIRMRPPRLPRPRPRPHYKPRP
- shrunken log2 fold change: -0.539

Sequence: RRIRIRPPRLPRPRPRPARDPRP
- shrunken log2 fold change: -0.169

Sequence: RRIRFRPPRLPRPRPRPITSPRP
- shrunken log2 fold change: -0.178

Sequence: RRIRTRPPRLPRPRPRPCPHPRP
- shrunken log2 fold change: -0.0429

Sequence: RRIRKRPPRLPRPRPRPMHEPRP
- shrunken log2 fold change: 0.191

Sequence: RRIRPRPPRLPRPRPRPFPEPRP
- shrunken log2 fold change: 0.0208

Sequence: RRIRQRPPRLPRPRPRPDAIPRP
- shrunken log2 fold change: 0.0472

Sequence: RRIRVRPPRLPRPRPRPWWTPRP
- shrunken log2 fold change: -0.0418

Sequence: RRIRQRPPRLPRPRPRPSSNPRP
- shrunken log2 fold change: -0.222

Sequence: RRIRGRPPRLPRPRPRPGDAPRP
- shrunken log2 fold change: 1.09

Sequence: RRIRMRPPRLPRPRPRPMDGPRP
- shrunken log2 fold change: 0.418

Sequence: RRIRHRPPRLPRPRPRPIHMPRP
- shrunken log2 fold change: -0.141

Sequence: RRIRDRPPRLPRPRPRPRHFPRP
- shrunken log2 fold change: -0.0107

Sequence: RRIRFRPPRLPRPRPRPDWGPRP
- shrunken log2 fold change: 0.00855

Sequence: RRIRSRPPRLPRPRPRPCHEPRP
- shrunken log2 fold change: 0.0697

Sequence: RRIRVRPPRLPRPRPRPRHEPRP
- shrunken log2 fold change: 0.193

Sequence: RRIRPRPPRLPRPRPRPIRRPRP
- shrunken log2 fold change: -0.0359

Sequence: RRIRLRPPRLPRPRPRPISHPRP
- shrunken log2 fold change: -0.137

Sequence: RRIRPRPPRLPRPRPRPKPIPRP
- shrunken log2 fold change: 0.035

Sequence: RRIRKRPPRLPRPRPRPIHRPRP
- shrunken log2 fold change: -0.0202

Sequence: RRIRVRPPRLPRPRPRPIHMPRP
- shrunken log2 fold change: -0.0179

Sequence: RRIRCRPPRLPRPRPRPHSHPRP
- shrunken log2 fold change: -0.307

Sequence: RRIRPRPPRLPRPRPRPSPSPRP
- shrunken log2 fold change: 0.132

Sequence: RRIRYRPPRLPRPRPRPYLCPRP
- shrunken log2 fold change: -1.35

Sequence: RRIRNRPPRLPRPRPRPTHAPRP
- shrunken log2 fold change: 0.337

Sequence: RRIRWRPPRLPRPRPRPNIMPRP
- shrunken log2 fold change: -0.296

Sequence: RRIRERPPRLPRPRPRPHESPRP
- shrunken log2 fold change: 0.0153

Sequence: RRIRMRPPRLPRPRPRPYRVPRP
- shrunken log2 fold change: 0.111

Sequence: RRIRIRPPRLPRPRPRPEHEPRP
- shrunken log2 fold change: -0.434

Sequence: RRIRTRPPRLPRPRPRPHRVPRP
- shrunken log2 fold change: 0.0498

Sequence: RRIRHRPPRLPRPRPRPCTFPRP
- shrunken log2 fold change: -0.456

Sequence: RRIRLRPPRLPRPRPRPMAAPRP
- shrunken log2 fold change: 0.627

Sequence: RRIRMRPPRLPRPRPRPTKLPRP
- shrunken log2 fold change: 0.287

Sequence: RRIRCRPPRLPRPRPRPNTLPRP
- shrunken log2 fold change: -0.535

Sequence: RRIRYRPPRLPRPRPRPVINPRP
- shrunken log2 fold change: -0.338

Sequence: RRIRIRPPRLPRPRPRPAIRPRP
- shrunken log2 fold change: -0.161

Sequence: RRIRSRPPRLPRPRPRPDMNPRP
- shrunken log2 fold change: 0.0168

Sequence: RRIRYRPPRLPRPRPRPKICPRP
- shrunken log2 fold change: -0.0342

Sequence: RRIRLRPPRLPRPRPRPVYQPRP
- shrunken log2 fold change: -0.0597

Sequence: RRIRGRPPRLPRPRPRPGTGPRP
- shrunken log2 fold change: 0.84

Sequence: RRIRIRPPRLPRPRPRPGEPPRP
- shrunken log2 fold change: -0.0228

Sequence: RRIRKRPPRLPRPRPRPDACPRP
- shrunken log2 fold change: 0.00649

Sequence: RRIRGRPPRLPRPRPRPPPWPRP
- shrunken log2 fold change: 1.41

Sequence: RRIRPRPPRLPRPRPRPGSFPRP
- shrunken log2 fold change: 0.0277

Sequence: RRIRERPPRLPRPRPRPKNWPRP
- shrunken log2 fold change: 1.59

Sequence: RRIRCRPPRLPRPRPRPPYRPRP
- shrunken log2 fold change: -0.0439

Sequence: RRIRRRPPRLPRPRPRPTEAPRP
- shrunken log2 fold change: 0.0804

Sequence: RRIRARPPRLPRPRPRPHCFPRP
- shrunken log2 fold change: 0.36

Sequence: RRIRLRPPRLPRPRPRPYAIPRP
- shrunken log2 fold change: -0.233

Sequence: RRIRKRPPRLPRPRPRPECDPRP
- shrunken log2 fold change: 3.35

Sequence: RRIRYRPPRLPRPRPRPIAEPRP
- shrunken log2 fold change: 2.73

Sequence: RRIRNRPPRLPRPRPRPACFPRP
- shrunken log2 fold change: 0.0188

Sequence: RRIRMRPPRLPRPRPRPDFWPRP
- shrunken log2 fold change: 0.778

Sequence: RRIRFRPPRLPRPRPRPCLNPRP
- shrunken log2 fold change: -0.244

Sequence: RRIRSRPPRLPRPRPRPMETPRP
- shrunken log2 fold change: 0.585

Sequence: RRIRMRPPRLPRPRPRPAYWPRP
- shrunken log2 fold change: 0.509

Sequence: RRIRFRPPRLPRPRPRPPDRPRP
- shrunken log2 fold change: 0.128

Sequence: RRIRQRPPRLPRPRPRPTPTPRP
- shrunken log2 fold change: 0.336

Sequence: RRIRRRPPRLPRPRPRPRDRPRP
- shrunken log2 fold change: 0.713

Sequence: RRIRDRPPRLPRPRPRPCLTPRP
- shrunken log2 fold change: 0.0157

Sequence: RRIRFRPPRLPRPRPRPCGCPRP
- shrunken log2 fold change: -0.0484

Sequence: RRIRQRPPRLPRPRPRPTLVPRP
- shrunken log2 fold change: 0.186

Sequence: RRIRSRPPRLPRPRPRPRQVPRP
- shrunken log2 fold change: 0.109

Sequence: RRIRWRPPRLPRPRPRPINYPRP
- shrunken log2 fold change: -0.387

Sequence: RRIRHRPPRLPRPRPRPWIIPRP
- shrunken log2 fold change: 0.00956

Sequence: RRIRIRPPRLPRPRPRPDHKPRP
- shrunken log2 fold change: -0.413

Sequence: RRIRYRPPRLPRPRPRPMPMPRP
- shrunken log2 fold change: -0.319

Sequence: RRIRLRPPRLPRPRPRPEIKPRP
- shrunken log2 fold change: -0.12

Sequence: RRIRERPPRLPRPRPRPFDFPRP
- shrunken log2 fold change: -0.146

Sequence: RRIRHRPPRLPRPRPRPWSWPRP
- shrunken log2 fold change: -0.304

Sequence: RRIRHRPPRLPRPRPRPDPAPRP
- shrunken log2 fold change: 0.189

Sequence: RRIRLRPPRLPRPRPRPFWCPRP
- shrunken log2 fold change: -0.0123

Sequence: RRIRHRPPRLPRPRPRPVPNPRP
- shrunken log2 fold change: -8.36e-05

Sequence: RRIRMRPPRLPRPRPRPESDPRP
- shrunken log2 fold change: 3.34

Sequence: RRIRVRPPRLPRPRPRPIDPPRP
- shrunken log2 fold change: -0.0131

Sequence: RRIRHRPPRLPRPRPRPTYMPRP
- shrunken log2 fold change: -0.435

Sequence: RRIRNRPPRLPRPRPRPAAGPRP
- shrunken log2 fold change: 0.698

Sequence: RRIRLRPPRLPRPRPRPVQCPRP
- shrunken log2 fold change: 0.079

Sequence: RRIRHRPPRLPRPRPRPRSLPRP
- shrunken log2 fold change: 0.295

Sequence: RRIRNRPPRLPRPRPRPWFFPRP
- shrunken log2 fold change: -0.0137

Sequence: RRIRERPPRLPRPRPRPLRDPRP
- shrunken log2 fold change: -0.0299

Sequence: RRIRPRPPRLPRPRPRPDINPRP
- shrunken log2 fold change: -0.673

Sequence: RRIRHRPPRLPRPRPRPFGCPRP
- shrunken log2 fold change: 0.0728

Sequence: RRIRRRPPRLPRPRPRPVCIPRP
- shrunken log2 fold change: 0.0361

Sequence: RRIRARPPRLPRPRPRPMYSPRP
- shrunken log2 fold change: -0.08

Sequence: RRIRPRPPRLPRPRPRPNHWPRP
- shrunken log2 fold change: -0.0328

Sequence: RRIRFRPPRLPRPRPRPSTIPRP
- shrunken log2 fold change: -0.45

Sequence: RRIRWRPPRLPRPRPRPIEKPRP
- shrunken log2 fold change: -0.221

Sequence: RRIRDRPPRLPRPRPRPGAHPRP
- shrunken log2 fold change: 0.651

Sequence: RRIRCRPPRLPRPRPRPPRWPRP
- shrunken log2 fold change: 1.16

Sequence: RRIRNRPPRLPRPRPRPIIWPRP
- shrunken log2 fold change: -0.139

Sequence: RRIRRRPPRLPRPRPRPVHHPRP
- shrunken log2 fold change: -0.468

Sequence: RRIRNRPPRLPRPRPRPMAFPRP
- shrunken log2 fold change: -0.192

Sequence: RRIRHRPPRLPRPRPRPVEMPRP
- shrunken log2 fold change: -0.0679

Sequence: RRIRERPPRLPRPRPRPSGEPRP
- shrunken log2 fold change: -0.157

Sequence: RRIRGRPPRLPRPRPRPDIFPRP
- shrunken log2 fold change: 0.837

Sequence: RRIRFRPPRLPRPRPRPEVCPRP
- shrunken log2 fold change: 0.00109

Sequence: RRIRDRPPRLPRPRPRPYEHPRP
- shrunken log2 fold change: 0.077

Sequence: RRIRDRPPRLPRPRPRPHKMPRP
- shrunken log2 fold change: -0.293

Sequence: RRIRNRPPRLPRPRPRPVIMPRP
- shrunken log2 fold change: 0.178

Sequence: RRIRKRPPRLPRPRPRPNGPPRP
- shrunken log2 fold change: -0.00695

Sequence: RRIRSRPPRLPRPRPRPHWFPRP
- shrunken log2 fold change: -0.0389

Sequence: RRIRRRPPRLPRPRPRPWQGPRP
- shrunken log2 fold change: -0.00783

Sequence: RRIRSRPPRLPRPRPRPTADPRP
- shrunken log2 fold change: 0.275
